# Molecular target: the molecule itself
# Experiment: AUC
protein,measurement,value
EC1–2 of mouse E-cadherin (domain or fragment) DWVIPPISCPENEKGEFPKNLVQIKSNRDKETKVFYSITGQGADKPPVGVFIIERETGWLKVTQPLDREAIAKYILYSHAVSSNGEAVEDPMEIVITVTDQNDNRPEFTQEVFEGSVAEGAVPGTSVMKVSATDADDDVNTYNAAIAYTIVSQDPELPHKNMFTVNRDTGVISVLTSGLDRESYPTYTLVVQAADLQGEGLSTTAKAVITVKD,Kd,~175 µM

# From PMC4164303 (Science (New York, N.Y.), 2014)
